In patent US20220177596A1 (Bristol-Myers Squibb, published 2022):
Substitutions are numbered along the chain they refer to. Names and notes keep the numbering of the source. Read-outs that look alike come from different tables or passages of the source.

T1: hCD32a-H131-His (human, UniProt P12318 34-217)
T1 construct: Generated in house; captured on anti-His Fab; also called FcgRIIa-H131
T1 sequence: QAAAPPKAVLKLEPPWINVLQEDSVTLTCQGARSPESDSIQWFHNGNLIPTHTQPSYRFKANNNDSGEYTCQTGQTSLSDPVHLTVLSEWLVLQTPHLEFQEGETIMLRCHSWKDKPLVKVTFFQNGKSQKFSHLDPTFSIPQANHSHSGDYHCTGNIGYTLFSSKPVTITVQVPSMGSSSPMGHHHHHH

T2: hCD32a-R131-His (human, UniProt P12318 34-217)
T2 construct: Generated in house; captured on anti-His Fab; Allele R131 as printed; the database entry may carry H at that position; also called FcgRIIa-R131
T2 sequence: T1 sequence with H134R

T3: hCD32b-His (human, UniProt P31994 43-217)
T3 construct: Generated in house; captured on anti-His Fab; also called FcgRIIb
T3 sequence: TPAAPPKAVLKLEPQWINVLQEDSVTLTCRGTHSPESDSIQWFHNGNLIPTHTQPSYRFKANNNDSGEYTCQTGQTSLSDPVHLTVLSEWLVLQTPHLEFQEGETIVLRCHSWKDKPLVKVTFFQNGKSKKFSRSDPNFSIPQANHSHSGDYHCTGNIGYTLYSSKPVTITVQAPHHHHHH

B1: Y1238-N297A (antibody, human IgG1, kappa, N297A)
heavy: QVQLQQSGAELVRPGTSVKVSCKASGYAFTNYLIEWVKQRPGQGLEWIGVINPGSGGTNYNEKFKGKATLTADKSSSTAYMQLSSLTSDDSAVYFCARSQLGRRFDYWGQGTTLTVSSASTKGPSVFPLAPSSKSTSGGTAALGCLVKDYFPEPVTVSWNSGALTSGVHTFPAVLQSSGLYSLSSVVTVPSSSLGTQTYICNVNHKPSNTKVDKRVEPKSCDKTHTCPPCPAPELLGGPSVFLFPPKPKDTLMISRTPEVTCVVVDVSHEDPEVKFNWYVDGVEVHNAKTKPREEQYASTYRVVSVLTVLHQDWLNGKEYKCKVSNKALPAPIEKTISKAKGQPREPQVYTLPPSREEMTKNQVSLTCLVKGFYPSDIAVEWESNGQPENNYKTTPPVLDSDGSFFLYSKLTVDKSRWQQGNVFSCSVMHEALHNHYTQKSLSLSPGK
light: DIVMTQSHKFMSTSVGDRVSITCKASQDVRTGVAWYQQKPGQSPKLLIYSASYRNTGVPDRFTGSRSGTDFTFTISSVQAEDLAVYYCQQHYSPPYTFGGGTKLEIKRTVAAPSVFIFPPSDEQLKSGTASVVCLLNNFYPREAKVQWKVDNALQSGNSQESVTEQDSKDSTYSLSSTLTLSKADYEKHKVYACEVTHQGLSSPVTKSFNRGEC
notes: Chimeric; also called chimeric Y1238-N297A
B2: 5F11-45-IgG1f (antibody)
heavy: not shown
light: DIVLTQSPDSLAVSLGERATINCRASKNVDSYGNSFMHWYQQKPGQPPKLLIYRASNLESGVPDRFSGSGSGTDFTLTISSLQAEDVAVYYCQQSNEDPLTFGQGTKLEIKRTVAAPSVFIFPPSDEQLKSGTASVVCLLNNFYPREAKVQWKVDNALQSGNSQESVTEQDSKDSTYSLSSTLTLSKADYEKHKVYACEVTHQGLSSPVTKSFNRGEC
notes: Humanized anti-CD40, wild type human IgG1f
B3: 5F11-45-SE (antibody, human IgG1, kappa)
heavy: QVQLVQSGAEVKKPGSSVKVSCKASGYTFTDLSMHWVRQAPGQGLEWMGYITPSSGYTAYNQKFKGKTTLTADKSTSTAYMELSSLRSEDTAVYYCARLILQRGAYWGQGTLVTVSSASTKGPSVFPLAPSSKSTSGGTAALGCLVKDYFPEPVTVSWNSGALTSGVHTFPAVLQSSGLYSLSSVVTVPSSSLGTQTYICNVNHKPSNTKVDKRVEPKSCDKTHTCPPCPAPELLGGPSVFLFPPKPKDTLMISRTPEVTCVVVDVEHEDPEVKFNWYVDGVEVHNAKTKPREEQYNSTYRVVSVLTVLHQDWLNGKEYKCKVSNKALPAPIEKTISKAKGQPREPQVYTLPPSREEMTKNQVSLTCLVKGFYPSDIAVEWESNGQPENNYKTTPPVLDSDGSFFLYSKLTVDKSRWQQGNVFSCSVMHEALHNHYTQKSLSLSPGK
light: B2 light
notes: also called S267E variant

Experiments:
[1] = target: human CD40 on primary human cells (tonsillar B cells, immature dendritic cells) (human, UniProt P25942 21-277); assay: cell-based or functional assay
human CD40 on primary human cells (tonsillar B cells, immature dendritic cells), sequence (P25942 21-277 limits assumed): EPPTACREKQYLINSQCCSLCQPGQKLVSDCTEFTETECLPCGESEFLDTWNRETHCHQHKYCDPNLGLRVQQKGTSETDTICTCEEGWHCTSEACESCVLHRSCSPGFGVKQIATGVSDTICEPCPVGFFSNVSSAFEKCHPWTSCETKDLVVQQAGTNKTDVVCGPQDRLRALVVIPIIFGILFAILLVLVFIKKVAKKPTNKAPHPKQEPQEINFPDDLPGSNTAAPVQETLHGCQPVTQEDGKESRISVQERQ

human-CD40 monomer [2] = target: T4, human-CD40 monomer (human, UniProt P25942 21-193, limits assumed); assay: SPR, Ab captured on protein A, CD40 monomer analyte
T4 construct: also called hCD40-monomer; human-CD40-monomer protein
T4 sequence (P25942 21-193 limits assumed): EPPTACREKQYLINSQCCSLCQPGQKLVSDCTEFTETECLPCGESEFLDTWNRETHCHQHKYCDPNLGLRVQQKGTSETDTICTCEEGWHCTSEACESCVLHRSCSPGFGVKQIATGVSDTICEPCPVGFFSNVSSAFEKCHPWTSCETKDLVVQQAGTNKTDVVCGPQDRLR
Method: These chimeric antibodies were tested for CD40 and FcgR binding by SPR, as well as for iDC activation.

hCD64-His [3] = target: T5, hCD64-His (human, UniProt P12314 16-288, limits assumed); assay: SPR
T5 construct: Generated in house; captured on anti-His Fab; also called hFcgRI; FcgRI
T5 sequence (P12314 other isoform, or with tags, fused parts or gaps limits assumed): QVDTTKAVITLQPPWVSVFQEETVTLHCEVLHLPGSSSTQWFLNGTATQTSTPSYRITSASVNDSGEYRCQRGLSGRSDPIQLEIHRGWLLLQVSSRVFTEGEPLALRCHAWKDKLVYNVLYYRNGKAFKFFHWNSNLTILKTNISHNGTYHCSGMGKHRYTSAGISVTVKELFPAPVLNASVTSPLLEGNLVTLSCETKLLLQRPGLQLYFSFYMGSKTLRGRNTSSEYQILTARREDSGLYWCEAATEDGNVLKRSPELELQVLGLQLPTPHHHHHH
Method: (§1) FCGR BINDING SPR: FcgR binding can be measured in vitro using purified FcgRs using methods such as BIAcore™ surface plasmon resonance (SPR). One method tests the binding of purified antibodies to His-tagged FcgR proteins (FcgR-His) which are captured on the immobilized Fab fragment of an anti-His antibody. These experiments are performed on either a BIAcore™ T100 or BIAcore™ T200 instrument (GE Healthcare Life Sciences, Marlborough, Mass.) at 25° C. The Fab fragment from a murine anti-6×His antibody (generated in house) is immobilized on a CMS sensor chip using standard ethyl(dimethylaminopropyl) carbodiimide (EDC)/N-hydroxysuccinimide (NHS) chemistry with ethanolamine blocking, to a density of ˜3000 RU in a running buffer of 10 mM HEPES pH 7.4, 150 mM NaCl, 3 mM EDTA, 0.05% surfactant p20 (HBS-EP+). All remaining studies are performed using a running buffer of 10 mM NaPO4, 130 mM NaCl, 0.05% p20 (PBS-T) pH 7.1. Various FcγR proteins containing a C-terminal 6× poly-histidine tag (generated in house) are captured on this surface (typically using FcgR-his protein concentration of ˜7 μg/ml) using a contact time of 30 sec at 10 μl/min. Various concentrations of purified antibody are tested for binding, for example using an association time of 120 seconds at 30 μl/min, and a dissociation time of 120 seconds at 30 μl/min. FcgR proteins tested in these studies include the “high affinity” FcgR CD64 (hFcgRI), as well as the “low affinity” FcgRs CD32a-H131 (FcgRIIa-H131), CD32a-R131 (FcgRIIa-R131), CD32b (FcgRIIb), CD16a-V158 (FcgRIIIa-V158), and CD16b-NA2 (FcgRIIIb-NA2).

hCD64-His [4] = target: T5, hCD64-His; assay: SPR (BIAcore): 7 µg/ml hCD64-His captured on an anti-His Fab surface, 1 µM antibody as analyte
Method: as §1

human-CD40 monomer [5] = target: T4, human-CD40 monomer; assay: SPR, Ab captured on protein A, CD40 monomer analyte; remark: listed apart in the source
hCD16a-V158-His = target: T6, hCD16a-V158-His (human, UniProt P08637 17-208); assay: SPR
T6 construct: Generated in house; captured on anti-His Fab; Allele V158 as printed; the database entry may carry F at that position; also called FcgRIIIa-V158
T6 sequence (P08637 other isoform, or with tags, fused parts or gaps limits assumed): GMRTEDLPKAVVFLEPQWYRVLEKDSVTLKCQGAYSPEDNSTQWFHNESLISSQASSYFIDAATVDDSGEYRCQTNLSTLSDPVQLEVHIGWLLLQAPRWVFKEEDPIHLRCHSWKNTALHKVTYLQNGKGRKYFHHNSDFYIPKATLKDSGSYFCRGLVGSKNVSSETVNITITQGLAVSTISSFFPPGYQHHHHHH
Method: as §1

hCD32a-H131-His = target: T1, hCD32a-H131-His; assay: SPR
Method: as §1

hCD32a-R131-His = target: T2, hCD32a-R131-His; assay: SPR
Method: as §1

hCD32b-His = target: T3, hCD32b-His; assay: SPR
Method: as §1

Binder	IC50 for inhibition of proliferation of B cells, CD40L Trimer [1]	IC50 for inhibition of proliferation of B cells, CHO CD40L [1]	Kd (human-CD40 monomer [2])	koff (human-CD40 monomer [2])	kon (human-CD40 monomer [2])	binding result (hCD64-His [3])	binding result (hCD64-His [4])	Kd (human-CD40 monomer [5])	koff (human-CD40 monomer [5])	kon (human-CD40 monomer [5])	binding result (hCD16a-V158-His)	binding result (hCD32a-H131-His)	binding result (hCD32a-R131-His)	binding result (hCD32b-His)
B1	0.0036 µg/mL	0.017 µg/mL	2.5 nM	0.00024 s⁻¹	97000 M⁻¹ s⁻¹	binds	–	–	–	–	–	–	–	–
B2	–	–	–	–	–	–	binds	6.7 nM	0.00046 s⁻¹	69000 M⁻¹ s⁻¹	binds	binds	binds	binds
B3	–	–	–	–	–	–	–	6.6 nM	0.00047 s⁻¹	71000 M⁻¹ s⁻¹	–	binds	binds	binds
